Experimental data from the nanobody polyreactivity screen of Harvey et al. (2022).

Assay: yeast display, Sf9 membrane polyspecificity reagent, FACS + sequencing; frameworks hold sequencing errors
Method in brief: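 Galactose-induced (36–48 hours) yeast carrying a synthetic nanobody display library were exposed to 10% biotinylated, detergent-solubilized Sf9 membrane reagent at 4 °C for 1 hour. FACS followed streptavidin microbead enrichment, using low and high (top ~1%) gates for expression (anti-HA) and reagent binding (streptavidin). Colony PCR, MiSeq 2 × 250 sequencing and CDR-length filtering followed. Labels for polyreactivity reflect the gate of origin.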

| Sequence | polyreactivity (PSR sort gate) |
| --- | --- |
| QVQLVESGGGLVQAGGSLRLSCAASGLIFRLYAMGWYIQAPGKERELVAAISGGGGSTYYADSVKGRFTISRDNAKNTVYLQMNSLKPEDTAVYYCAATYSRGYWWSEYDYWGQGTQVTVSS | low polyreactivity |
| QVQLVESGGGLVQAGGSLRLSSAASGFTFWSKAMGWYRQAPGKERELVAAISRGGSTYYADSVKGRFTITRDNAKNTVYLQMNSLKPEDTAVYYCAAVRLSRVYYWGQGTQVTVSS | high polyreactivity |
| QVQLVESGGGLVQAGGSLRLSCAASGRIFVRNAMGWYRQAPGKERELVADITNGGSTNYADSVKGRFTITRDNAKNTVYLQMNSLKPEDTAVYYCAADTLGVYDGDYWGQVTQVTVSS | low polyreactivity |
| QVQLVESGGGLVQAGGSLRLSCAASGLIFPWTYAMGWYRQAPGKEREFVAAITSSDGSTYYADSVKGRFTISRDNAKNTVYLQMNSLKPEDTAVYYCAAVGWDYDWDYYYWGQGTQVTVSS | high polyreactivity |
| QVQVVESGGGLVQAGGSLRLSCAASGSTFPGNAMGWYRQAPGKERDLVAAITSTGTTYYADSVKGRFTISRDNAKNTVYLQMNSLKPEDTAVYYWNADPSPDPSTFDYWGQGTLVTVSS | low polyreactivity |
| QVQLVESGGGLVQAGGSLRLSCAASGPIFVENAMGRNRPAPGKERELVAAISGGGSTDYADSVKGRFTISRDNAKNTVYLEMNSLKPVYTAVYFCNARQVFTTAGGEMDYWGQGTQVTVSS | low polyreactivity |
| QVQLVESGGGLVQAGGSLRLSCDASGRIFYSYDIGWYRQAHGKARELVATISSAGSTYYADSVKGRFTISRDNAKNTVYLQMNSLKPEDTAVYYSARRSGWWTRMDSWGQGTQVTVSS | high polyreactivity |
| QVQLVESGGGLVQAGGSLRLSCAASGINFYYYTMGWYRQAPGKERELVAGITRGGRTYYADSVKGRFTISRDNAKNTVYLQMNSLKPEDTAVYYCNADPWWRFDYWGQGTQVTVSS | low polyreactivity |
| QVQLVESGGGLVQAGGSLRLSCAASGLIFLGNAMGWYRQAPGKERELVAAISRSGGTTYYADSVKGRFTISRDNAKNTVYLQMNSLKPEDTAVYYCNAYNPYYRATVSSRGYGYWGQGTQVTVSS | high polyreactivity |
| QVQLVESGGGLVQAGGSLRLSCAASGLTFPYYAMGWYRQAPGKERELVAVITSGGRTYYADSVKGRFTISRDNAKNTVYLQMNSLKPEDTAVYYCAVGWRTIYGSDGDYWGQGTQVTVST | high polyreactivity |
| QVQLVESGGGLVQAGGSLRLSCAASGSTSWSYAMGWYRQAPGKERELVAAITRTGSTNYADSVKGRFTISRDNAKNTVYLQMNSLKPEDTAVYYCVYATLRYDYWGQGTQVTVSS | low polyreactivity |
| QVQLVESGGGLVQAGGSLRLSCAASGFTFIQYAMGWYRPAPGKERELVAAMTWSGGRTYYADSVKGRFTISRDNAKNTVYLHMNSLKPEDTAVYYCAKPFNIWGQGTKVTVSS | high polyreactivity |
| QVQLVESGGGLVQAGGSLRLSCAASGIILSPYTMGWYRQAPGKERELVAGISRSGGTTYYADSVKGRFTISRDNAKNTVYLQMNSLKPEDTAVYYCAARKPGWGHEWWVEHYYYWGQGTQVTVSS | low polyreactivity |
| QDQLVESRGGIVQAVRSLRLSCAASGSIFIDNAMGWYRQAPGKESEFVAAISKSATSTYYADSVKGRFTISRDNAYNTVYLEMKSLIPEDTAVYYCAVRRPRPYSNYYYWGQGTQVNVSS | high polyreactivity |
| QVQLVESGGGLVQAGGSLRLSCAASGSTFDKYAMGWYRQAPGKERELVAVISGSGGRTYYADSVKGRFTISRDNAKNTVYLQMNSLKPEDTAVYYCAARGSFKKGYWGQGTQVTVSS | high polyreactivity |
| QVQLVESLGGLVQAGGSLRLSCAASGFTFTNYAMGWYRQAPGKERELVAAINSSGSTNYADSVKGRFTISRDNAKNTVYLQMNSLKPEDTAVYYCAVDYSYWVHGFWDDYDYWGQGTQVTVSS | low polyreactivity |
| QVQLVESGGGLVQAGGSLRLSCAASGFTFDKYAMGWYRQAPGKESELVAAISRGGGTKYADSVKGRFTISRDNAKNTVYLQMNSLKPEDTAVYYCVAKFRPDLSRGAYEYWGQGTQVTVSS | high polyreactivity |
